Data on two substances can be found in patent US6677124.

Test [1] addresses monoclonal antibody BC203. Nature of the test: competitive radioimmunoassay: unlabeled hBNP against 125I-labeled Tyr0-hBNP on BC203 (ascites BC203A diluted 42,000-fold), PEG precipitation.
Test [2] deals with human brain natriuretic peptide (hBNP) (human). Nature of the test: Scatchard plot from the hBNP standard curve of the radioimmunoassay.
human brain natriuretic peptide (hBNP) (human), sequence (peptide, as listed by the source): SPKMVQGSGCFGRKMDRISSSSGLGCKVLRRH

human brain natriuretic peptide (hBNP), sequence (peptide): as the sequence (peptide, as listed by the source) above

On to human brain natriuretic peptide (hBNP), for which, in test [1], the 90% inhibitory concentration came to 1.3 ng/mL and the IC50 (usually the midpoint of a concentration-inhibition curve) came out at 0.0118 µg/mL.

monoclonal antibody BC203 showed a Ka in test [2] of 1.3e+09 M⁻¹.
